# Results as given in PMC8511952.
# Assays:
# Experiment in all cases: fluorescence anisotropy
# Details in all cases: unmodified in vitro transcript; FA: 5 nM labeled tRNA, 25 mM Tris-HCl pH 8, 50 mM NaCl, 1 mM MgCl2, room temperature, 30 min
# [1] = system: MBP-ERSRC E205G (Homo sapiens)
# [2] = system: MBP-ERS2.5W E205G (Homo sapiens)
# [3] = system: MBP-ERS2.5W P14R (Homo sapiens)
substance,measurement,setting,value
tRNAGlu(TTC),Kd,[1],277 nM
same,Kd,[2],54.3 nM
same,Kd,[3],94 nM
